Laboratory results: the supplement of paper PMC10567573

B1: TMEM40 (parent)
chain: YGETDFHKQDGKAGLFSQEQYERN

Variants of: B1
Assay: protein stability index of a GFP-peptide fusion (GPS, HEK-293T) (PSI 1-6); higher = more stable
Details: c terminus: a fixed tail appended
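Further: lentivirally expressed fusions sorted by FACS into six bins by GFP to DsRed ratio, PSI derived from sequencing read proportions per bin multiplied by bin number.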

Protein stability index, by site and new letter:
Q9: E 4.78, K 3.7, A 3.96, W 2.99, P 3.56, S 4.33, F 3.38, Y 3.37, N 4.53, H 3.75, L 3.49, M 3.17, I 3.71, D 5.05, T 3.85, V 3.6, G 3.73, R 4.13
T4: L 3.69, M 3.67, E 4.83, I 4, K 3.59, R 3.33, H 4.13, A 3.78, W 3.28, G 4.61, P 3.62, Y 4.04, S 4.06, F 4.43, N 4.59, Q 4.14, C 4.34, D 4.66, V 4.14
D5: C 2.36, Y 2.04, F 1.49, S 2.88, L 3.07, V 3.2, N 3.24, E 4.37, Q 3.81, G 2.37, P 4.14, K 3.2, H 2.83, M 2.58, R 3.38, T 2.99, I 3.15, A 2.92
D10: T 3.04, H 2.77, C 2.46, N 3.92, P 3.12, I 1.92, E 3.72, Q 2.9, L 2.09, S 2.96, K 3.44, W 2.27, V 2, M 1.47, G 3.24, Y 2.85, F 2.26, R 3.37
F16: T 4.58, G 4.84, Y 5.04, I 4.58, D 5.25, E 4.3, M 4.53, K 4.38, N 4.91, C 3.78, R 4.81, Q 5.1, S 4.88, H 5.06, A 4.97, V 4.65, W 3.08, L 4.47, P 5.02
L15: H 4.02, K 4.49, P 4.89, M 4.27, A 4.39, D 5.02, V 4.18, E 4.66, F 3.32, R 4.43, Q 4.51, W 3.8, I 4.08, Y 3.84, G 4.73, T 4.55, C 4.38, S 5.04, N 4.5
G2: Q 3.67, S 4.56, H 3.47, T 4.11, Y 4.57, P 4.95, W 3.62, M 3.92, V 1.6, L 4.46, K 4.68, E 5.38, N 4.78, F 4.61, I 2.65, R 4.66
S17: H 3.54, W 1.97, F 3.1, T 3.81, N 4.52, L 3.35, E 4.51, R 4.27, C 4.07, Q 4.48, P 4.03, D 3.98, Y 3.66, K 3.44, I 3.81, V 4.08, G 3.94, M 3.97, A 3.79
K12: H 4.28, T 4.5, R 4.1, Y 3.99, S 4.86, F 4.21, L 3.66, W 3.21, N 4.78, A 4.25, Q 4.21, M 4.14, E 4.82, I 3.93, C 4.35, G 4.19, V 4.49, P 4.38, D 4.86
K8: R 3.86, P 4.7, L 4.29, Y 3.96, V 4.34, Q 4.66, N 4.01, E 4.67, D 5.12, H 4.18, G 4.31, W 2.36, A 4.53, S 4.66, T 4.46, M 3.71, F 3.77, I 3.89, C 4.5
H7: C 4.35, T 4.53, Y 2.17, S 4.67, I 4.37, K 4.18, E 4.93, R 4.08, P 4.3, W 3.12, Q 4.32, M 3.9, L 3.92, G 4.58, D 5.38, V 4.24, F 1.88, N 4.91, A 4.48
G14: Q 4.29, S 4.68, R 3.84, T 4.06, D 4.79, L 3.86, W 2.72, N 4.47, H 4.06, E 4.63, Y 3.74, C 4.18, I 3.93, P 4.34, K 4.32, A 4.02, F 3.69, V 4.09, M 4.45
G11: H 4.16, W 3.2, T 3.68, E 4.68, P 3.46, C 3.77, N 4.32, F 3.86, M 4.58, Q 4.04, Y 3.75, D 4.5, R 4.08, S 4.55, A 4.25, V 4.21, K 4.16, I 3.9
Q18: D 4.5, H 4.29, N 3.66, I 3.58, R 3.83, T 3.41, P 2.05, C 2.82, G 4.26, S 3.3, V 3.36, L 3.81, F 3.65, E 4.6, K 4.55, Y 3.4, M 3.23, W 3.45, A 3.66
A13: L 4.07, Q 3.93, V 4.27, I 4.03, N 4.54, T 4.28, W 3.87, M 3.65, Y 3.41, P 3.54, D 4.28, E 4.33, R 3.96, S 3.83, K 4.04, F 3.83, C 3.28, H 4.21, G 4.08
E19: Q 3.7, H 3.29, W 2.64, M 3.15, D 4.45, A 3.54, C 3.48, F 2.54, N 3.9, P 3.72, R 3.49, L 2.21, V 3.22, T 3.73, G 3.66, I 2.23, K 3.23, S 3.6
E3: K 3.55, L 4.08, N 2.46, S 1.98, M 3.75, Q 3.71, R 3.85, H 3.23, A 3.92, G 2.36, V 4.38, I 3.9, P 3.88, T 3.61, W 3.49, D 3.09, Y 3.79, C 3.12, F 3.57
F6: K 4.91, L 4.98, N 5, Q 4.36, I 4.73, E 5.38, P 4.94, A 5.22, C 4.54, H 5.22, M 4.91, S 5.6, R 4.54, V 5.09, W 2.35, D 5.26, Y 4.41, T 4.6, G 5.25
